Legend:
[1] = target: T1, Norovirus GII.2 (Snow Mountain virus) VLP, capsid protein VP1 (Snow Mountain virus (Norovirus GII.2), UniProt Q80RD6 Q80RD6:1-542); experiment: ELONA; details: chain copies: 180
[2] = target: T1, Norovirus GII.2 (Snow Mountain virus) …; experiment: ELONA; ELASA, RT, 3 ug/ml VLP; T/N 4.1 at 1 uM (Table 5); details: chain copies: 180, label: 5' biotin
[3] = target: Norovirus GI.1 (Norwalk) VLP, capsid protein VP1 (Norwalk virus (Norovirus GI.1), UniProt Q83884 Q83884:1-530); experiment: ELONA; 1 uM aptamer, RT; <2 is negative; details: label: 5' biotin
[4] = target: T1, Norovirus GII.2 (Snow Mountain virus) …; experiment: ELONA; ELASA, RT, 3 ug/ml VLP; T/N 12.9 at 1 uM (Table 5); details: chain copies: 180, label: 5' biotin
[5] = target: T1, Norovirus GII.2 (Snow Mountain virus) …; experiment: ELONA; ELASA, RT, 3 ug/ml VLP; T/N 12.4 at 1 uM (Table 5); details: chain copies: 180, label: 5' biotin
[6] = target: T1, Norovirus GII.2 (Snow Mountain virus) …; experiment: ELONA; ELASA, RT, 3 ug/ml VLP; T/N 18.1 at 1 uM (Table 5); details: chain copies: 180, label: 5' biotin

B1: M1 (ssDNA)
DNA: AGTATACGTATTACCTGCAGCTGTTTATGGGGATAAACGTATCTAATTCGTGTACTAATCACGATATCTCGGAGATCTTGC
B1 gave a binding signal [1] of 10.7 VLP/no VLP ratio.

B2: SMV-26 (ssDNA)
DNA: AGTATACGTATTACCTGCAGCTGACCGAGTGTCTGGTCATTTTCGATGTCTGTTGTTAGGCCGATATCTCGGAGATCTTGC
Work on B2 yielded a Kd [2] of roughly 281 nM.

B3: SMV-19 (ssDNA)
DNA: AGTATACGTATTACCTGCAGCCACCAGTGTGTTGAGGTTTGAGCACACTGATAGAGTGTCACGATATCTCGGAGATCTTGC
B3 was tested, and the binding result [3] was “binds” and the Kd [4] was roughly 191 nM.

B4: SMV-25 (ssDNA)
DNA: AGTATACGTATTACCTGCAGCCATCTGTGTGAAGACTATATGGCGCTCACATATTTCTTTCCGATATCTCGGAGATCTTGC
B4 showed a Kd [5] of roughly 232 nM.

B5: M6-2 (ssDNA)
DNA: AGTATACGTATTACCTGCAGCTGGGAAGAGGTCCGGTAAATGCAGGGTCAGCCCGGAGAGCGATATCTCGGAGATCTTGC
For B5, the binding signal [1] was 12 VLP/no VLP ratio.

B6: SMV-21 (ssDNA)
DNA: AGTATACGTATTACCTGCAGCCCATGTTTTGTAGGTGTAATAGGTCATGTTAGGGTTTCTGCGATATCTCGGAGATCTTGC
B6 was tested, and the Kd [6] was roughly 101 nM.
